Source: IntAct's records for PubMed 24937146

B1: Microtubule protein alp7 (Schizosaccharomyces pombe (strain ATCC 38366 / 972)), Q9URY2 (parent)
chain: MSDIVSSSTDYSRRSPSSSSIGTNETDHTGFHEKRQGASSESLIPPAQRSSEESMPAPKLFPKLTSKPNPQLNLKDTLNKRVSDRLQALELNKSFDFSGTPRPMHPISHPLSQHKTPEFKHRKRNVESILTPKNPSLFSSSNAASQRGSLNTAPSNFAYSHSSSLQTSASSRPPVLSNGSFPRQTNTAPLNPPVHLKDNIRNSATPSTSQADIPTQYPINSTQKQQAKYEAEIEGYKAKLAGTYHEISVLQNTIVNVSGQLIAVNDQLQQLRSGKASTSPSTKDTNMRLVEGHNEETLALQRGKYTQEEVDKLIQERMEKVAEDLHAQYSAKHTQKINAFKANYARKYEATIQELQNQIGTAPNAPKISNSNWEEERRALKADNQTLQKQLEKAIQERQDMSDFLNNFKADMAKSDKLLMQQQSQQTGDLETLRLQLQALQEELRVEREERQQLIQMSEDLVIAMDQLNLEQKS
partner: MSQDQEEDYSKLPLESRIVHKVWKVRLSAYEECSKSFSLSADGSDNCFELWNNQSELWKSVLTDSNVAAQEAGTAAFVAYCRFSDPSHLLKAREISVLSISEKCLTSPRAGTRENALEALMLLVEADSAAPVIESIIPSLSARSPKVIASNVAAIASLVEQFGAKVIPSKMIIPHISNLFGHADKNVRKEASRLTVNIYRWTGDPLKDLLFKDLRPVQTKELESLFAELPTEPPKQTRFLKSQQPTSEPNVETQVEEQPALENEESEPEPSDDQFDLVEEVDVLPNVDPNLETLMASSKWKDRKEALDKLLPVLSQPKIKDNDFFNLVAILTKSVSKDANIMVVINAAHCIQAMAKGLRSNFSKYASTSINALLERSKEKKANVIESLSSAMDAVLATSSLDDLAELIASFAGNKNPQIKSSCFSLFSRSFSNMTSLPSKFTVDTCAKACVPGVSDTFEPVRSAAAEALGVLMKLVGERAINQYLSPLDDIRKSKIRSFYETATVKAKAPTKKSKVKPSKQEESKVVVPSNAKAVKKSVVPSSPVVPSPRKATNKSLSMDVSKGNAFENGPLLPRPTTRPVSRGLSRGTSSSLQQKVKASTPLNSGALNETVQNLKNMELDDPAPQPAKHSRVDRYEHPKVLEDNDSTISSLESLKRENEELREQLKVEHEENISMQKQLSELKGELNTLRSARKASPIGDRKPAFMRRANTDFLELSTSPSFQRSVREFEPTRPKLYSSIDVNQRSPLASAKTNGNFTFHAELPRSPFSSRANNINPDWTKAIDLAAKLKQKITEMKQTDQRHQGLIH
B2: Microtubule protein alp7 (Schizosaccharomyces pombe (strain ATCC 38366 / 972)), Q9URY2 (parent)
chain: B1 chain
partner: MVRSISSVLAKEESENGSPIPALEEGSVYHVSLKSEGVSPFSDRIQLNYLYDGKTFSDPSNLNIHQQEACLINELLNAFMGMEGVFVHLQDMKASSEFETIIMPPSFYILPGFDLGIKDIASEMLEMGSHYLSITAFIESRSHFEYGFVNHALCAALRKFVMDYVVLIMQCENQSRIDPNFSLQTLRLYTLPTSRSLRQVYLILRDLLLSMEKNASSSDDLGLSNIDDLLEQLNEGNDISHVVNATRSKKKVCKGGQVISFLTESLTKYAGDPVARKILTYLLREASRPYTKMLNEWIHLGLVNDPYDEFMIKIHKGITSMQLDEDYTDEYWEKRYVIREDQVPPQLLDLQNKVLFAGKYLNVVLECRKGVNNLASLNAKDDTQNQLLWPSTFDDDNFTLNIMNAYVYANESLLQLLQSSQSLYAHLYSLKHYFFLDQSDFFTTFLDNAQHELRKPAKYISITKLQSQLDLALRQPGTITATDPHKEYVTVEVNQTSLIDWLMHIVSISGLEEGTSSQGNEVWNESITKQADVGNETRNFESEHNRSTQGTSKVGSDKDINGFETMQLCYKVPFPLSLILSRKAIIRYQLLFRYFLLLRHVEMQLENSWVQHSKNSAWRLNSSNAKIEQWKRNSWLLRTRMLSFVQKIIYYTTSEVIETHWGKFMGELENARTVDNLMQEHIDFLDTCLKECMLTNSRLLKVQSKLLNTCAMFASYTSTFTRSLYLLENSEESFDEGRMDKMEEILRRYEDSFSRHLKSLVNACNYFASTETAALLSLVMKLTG
B3: Microtubule protein alp7 (Schizosaccharomyces pombe (strain ATCC 38366 / 972)), Q9URY2 (parent)
chain: B1 chain
partner: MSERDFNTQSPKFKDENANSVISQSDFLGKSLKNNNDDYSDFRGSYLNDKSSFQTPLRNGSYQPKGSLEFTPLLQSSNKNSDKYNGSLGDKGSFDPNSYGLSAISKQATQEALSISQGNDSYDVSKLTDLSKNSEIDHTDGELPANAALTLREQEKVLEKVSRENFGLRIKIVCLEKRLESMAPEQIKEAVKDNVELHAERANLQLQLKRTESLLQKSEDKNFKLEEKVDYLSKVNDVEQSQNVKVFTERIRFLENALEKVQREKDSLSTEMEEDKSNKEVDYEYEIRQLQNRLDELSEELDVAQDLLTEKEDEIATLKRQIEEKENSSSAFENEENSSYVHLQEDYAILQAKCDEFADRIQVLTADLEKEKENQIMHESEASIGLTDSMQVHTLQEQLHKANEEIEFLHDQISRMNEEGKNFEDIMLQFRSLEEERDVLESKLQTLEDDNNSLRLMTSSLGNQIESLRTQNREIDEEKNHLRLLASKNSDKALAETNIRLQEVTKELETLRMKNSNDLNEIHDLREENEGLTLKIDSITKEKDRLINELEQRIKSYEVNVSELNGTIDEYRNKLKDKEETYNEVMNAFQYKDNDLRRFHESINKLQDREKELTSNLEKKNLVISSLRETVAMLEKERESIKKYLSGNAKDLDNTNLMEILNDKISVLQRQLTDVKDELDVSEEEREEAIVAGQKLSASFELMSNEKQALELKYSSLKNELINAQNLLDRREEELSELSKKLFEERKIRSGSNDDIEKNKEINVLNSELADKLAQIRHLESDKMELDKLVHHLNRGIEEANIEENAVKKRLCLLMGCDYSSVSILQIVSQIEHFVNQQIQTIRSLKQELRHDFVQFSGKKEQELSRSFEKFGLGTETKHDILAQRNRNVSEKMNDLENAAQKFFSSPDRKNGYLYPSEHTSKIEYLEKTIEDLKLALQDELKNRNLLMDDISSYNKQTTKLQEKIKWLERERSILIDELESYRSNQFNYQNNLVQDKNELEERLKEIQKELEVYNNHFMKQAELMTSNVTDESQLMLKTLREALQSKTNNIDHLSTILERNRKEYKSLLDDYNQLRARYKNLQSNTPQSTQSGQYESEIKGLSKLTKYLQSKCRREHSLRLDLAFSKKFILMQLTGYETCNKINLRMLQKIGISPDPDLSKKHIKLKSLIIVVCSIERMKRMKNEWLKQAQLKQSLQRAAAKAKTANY

Variants of: B1
Settings: with alp14_schpo alp14, O94534

effect of a mutation on the interaction | Variant
disrupting interaction | MSDIVSSSTDYSRRSPSSSSIGTNETDHTGFHEKRQGASSESLIPPAQRSSEESMPAPKLFPKLTSKPNPQLNLKDTLNKRVSDRLQALELNKSFDFSGTPRPMHPISHPLSQHKTPEFKHRKRNVESILTPKNPSLFSSSNAASQRGSLNTAPSNFAYSHSSSLQTSASSRPPVLSNGSFPRQTNTAPLNPPVHLKDNIRNSATPSTSQADIPTQYPINSTQKQQAKYEAEIEGYKAKLAGTYHEISVLQNTIVNVSGQLIAVNDQLQQLRSGKASTSPSTKDTNMRLVEGHNEETLALQRGKYTQEEVDKLIQERMEKVAEDLHAQYSAKHTQKINAFAANAAAAAEATIQELQNQIGTAPNAPKISNSNWEEERRALKADNQTLQKQLEKAIQERQDMSDFLNNFKADMAKSDKLLMQQQSQQTGDLETLRLQLQALQEELRVEREERQQLIQMSEDLVIAMDQLNLEQKS [K341A;Y344A;R346A;K347A;Y348A]

Variants of: B2
Settings: with spc97_schpo alp4, Q9Y705

effect of a mutation on the interaction | Variant
disrupting interaction | MSDIVSSSTDYSRRSPSSSSIGTNETDHTGFHEKRQGASSESLIPPAQRSSEESMPAPKLFPKLTSKPNPQLNLKDTLNKRVSDRLQALELNKSFDFSGTPRPMHPISHPLSQHKTPEFKHRKRNVESILTPKNPSLFSSSNAASQRGSLNTAPSNFAYSHSSSLQTSASSRPPVLSNGSFPRQTNTAPLNPPVHLKDNIRNSATPSTSQADIPTQYPINSTQKQQAKYEAEIEGYKAKLAGTYHEISVLQNTIVNVSGQLIAVNDQLQQLRSGKASTSPSTKDTNMRLVEGHNEETLALQRGKYTQEEVDKLIQERMEKVAEDLHAQYSAKHTQKINAFAANAAAAAEATIQELQNQIGTAPNAPKISNSNWEEERRALKADNQTLQKQLEKAIQERQDMSDFLNNFKADMAKSDKLLMQQQSQQTGDLETLRLQLQALQEELRVEREERQQLIQMSEDLVIAMDQLNLEQKS [K341A;Y344A;R346A;K347A;Y348A]

Variants of: B3
Settings: with pcp1_schpo pcp1, Q92351

effect of a mutation on the interaction | Variant
disrupting interaction | MSDIVSSSTDYSRRSPSSSSIGTNETDHTGFHEKRQGASSESLIPPAQRSSEESMPAPKLFPKLTSKPNPQLNLKDTLNKRVSDRLQALELNKSFDFSGTPRPMHPISHPLSQHKTPEFKHRKRNVESILTPKNPSLFSSSNAASQRGSLNTAPSNFAYSHSSSLQTSASSRPPVLSNGSFPRQTNTAPLNPPVHLKDNIRNSATPSTSQADIPTQYPINSTQKQQAKYEAEIEGYKAKLAGTYHEISVLQNTIVNVSGQLIAVNDQLQQLRSGKASTSPSTKDTNMRLVEGHNEETLALQRGKYTQEEVDKLIQERMEKVAEDLHAQYSAKHTQKINAFAANAAAAAEATIQELQNQIGTAPNAPKISNSNWEEERRALKADNQTLQKQLEKAIQERQDMSDFLNNFKADMAKSDKLLMQQQSQQTGDLETLRLQLQALQEELRVEREERQQLIQMSEDLVIAMDQLNLEQKS [K341A;Y344A;R346A;K347A;Y348A]
